In publication PMC8812556 (Proceedings of the National Academy of Sciences of the …, 2022):
Each block holds one molecule with its values, some of them ahead of it.

How the values were obtained:
[1] = molecular target: FITC-labeled BiP-NBD (D27C variant) (UniProt P20029); assay: fluorescence polarisation
[2] = molecular target: BiP double-mutant G518C and Y636C labelled with AlexaFluor 555 and AlexaFluor 647 (UniProt P20029); assay: other fluorescence titration
cross-linking = molecular target: the molecule itself; assay: cross-linking

fold affinity enhancement versus wild-type Grp94 [1]: 50 fold
Molecule: M86C cross-linked Grp94 (from UniProt P08113 72-765) (natural protein)

Kd [2]: 130 nM
Molecule: Mouse E-peptide containing an N-terminal six-histidine tag and S95C mutation (domain or fragment)

Kd [1]: 950 nM
Molecule: Wild-type mouse Grp94 (72 to 765) (from UniProt P08113 72-765) (natural protein)

B1: Grp94 M86C (natural protein, mouse, UniProt P08113 72-765, looked up)
chain: KSEKFAFQAEVNRMCKLIINSLYKNKEIFLRELISNASDALDKIRLISLTDENALAGNEELTVKIKCDKEKNLLHVTDTGVGMTREELVKNLGTIAKSGTSEFLNKMTEAQEDGQSTSELIGQFGVGFYSAFLVADKVIVTSKHNNDTQHIWESDSNEFSVIADPRGNTLGRGTTITLVLKEEASDYLELDTIKNLVRKYSQFINFPIYVWSSKTETVEEPLEEDEAAKEEKEESDDEAAVEEEEEEKKPKTKKVEKTVWDWELMNDIKPIWQRPSKEVEEDEYKAFYKSFSKESDDPMAYIHFTAEGEVTFKSILFVPTSAPRGLFDEYGSKKSDYIKLYVRRVFITDDFHDMMPKYLNFVKGVVDSDDLPLNVSRETLQQHKLLKVIRKKLVRKTLDMIKKIADEKYNDTFWKEFGTNIKLGVIEDHSNRTRLAKLLRFQSSHHSTDITSLDQYVERMKEKQDKIYFMAGSSRKEAESSPFVERLLKKGYEVIYLTEPVDEYCIQALPEFDGKRFQNVAKEGVKFDESEKTKESREATEKEFEPLLNWMKDKALKDKIEKAVVSQRLTESPCALVASQYGWSGNMERIMKAQAYQTGKDISTNYYASQKKTFEINPRHPLIRDMLRRIKEDEDDKTVMDLAVVLFETATLRSGYLLPDTKAYGDRIERMLRLSLNIDPEAQVEEEPEEEPED
binding result (cross-linking): binds
